Consider two molecules from publication PMC4963399.

In the experiment the target is T1, rhodopsin, P15409.
T1 chain: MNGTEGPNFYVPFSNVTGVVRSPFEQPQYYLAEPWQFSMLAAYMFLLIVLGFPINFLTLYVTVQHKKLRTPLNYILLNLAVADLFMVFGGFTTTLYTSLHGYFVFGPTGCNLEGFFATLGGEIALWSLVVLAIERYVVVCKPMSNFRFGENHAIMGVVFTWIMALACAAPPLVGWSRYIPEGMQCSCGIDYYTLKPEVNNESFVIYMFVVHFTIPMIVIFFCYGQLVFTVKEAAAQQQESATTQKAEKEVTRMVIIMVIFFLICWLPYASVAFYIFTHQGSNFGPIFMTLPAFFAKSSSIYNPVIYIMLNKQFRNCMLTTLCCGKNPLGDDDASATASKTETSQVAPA
Kind of experiment: FRET or BRET; three cube sensitized acceptor emission FRET on single isolated rod outer segments of C57BL/6J mice co-transduced with two rAAV vectors (cerulean and citrine fusions); FRET imaging solution pH 7.4; FRET efficiency EA as mean ± SEM. The settings on record: remark: other sources report otherwise. On the technique in general: Bioluminescence resonance energy transfer reports proximity on the nanometre scale.

B1: peripherin-2, N-terminally tagged with citrine, P15499 1-346 (natural protein)
chain: MALLKVKFDQKKRVKLAQGLWLMNWLSVLAGIVLFSLGLFLKIELRKRSEVMNNSESHFVPNSLIGVGVLSCVFNSLAGKICYDALDPAKYAKWKPWLKPYLAVCIFFNVILFLVALCCFLLRGSLESTLAYGLKNGMKYYRDTDTPGRCFMKKTIDMLQIEFKCCGNNGFRDWFEIQWISNRYLDFSSKEVKDRIKSNVDGRYLVDGVPFSCCNPSSPRPCIQYQLTNNSAHYSYDHQTEELNLWLRGCRAALLNYYSSLMNSMGVVTLLVWLFEVSITAGLRYLHTALESVSNPEDPECESEGWLLEKSVPETWKAFLESFKKLGKSNQVEAEGADAGPAPEAG
Turning to B1, the FRET efficiency EA was found to be 4.52.

B2: peripherin-2, C-terminally tagged with citrine, P15499 1-346 (natural protein)
chain: MALLKVKFDQKKRVKLAQGLWLMNWLSVLAGIVLFSLGLFLKIELRKRSEVMNNSESHFVPNSLIGVGVLSCVFNSLAGKICYDALDPAKYAKWKPWLKPYLAVCIFFNVILFLVALCCFLLRGSLESTLAYGLKNGMKYYRDTDTPGRCFMKKTIDMLQIEFKCCGNNGFRDWFEIQWISNRYLDFSSKEVKDRIKSNVDGRYLVDGVPFSCCNPSSPRPCIQYQLTNNSAHYSYDHQTEELNLWLRGCRAALLNYYSSLMNSMGVVTLLVWLFEVSITAGLRYLHTALESVSNPEDPECESEGWLLEKSVPETWKAFLESFKKLGKSNQVEAEGADAGPAPEAG
In the case of B2, the FRET efficiency EA was 2.76.
